# Source: patent US20020037538A1, “Compositions, kits, and methods for identification, assessment, prevention, and therapy of psoriasis” (priority 2000, published 2002)
# B1: rhIL-11: recombinant human IL-11, experimental immune modulatory cytokine (protein, UniProt P20809 22-199, looked up)
# Interleukin-11: PGPPPGPPRVSPDPRAELDSTVLLTRSLLADTRQLAAQLRDKFPADGDHNLDSLPTLAMSAGALGALQLPGVLTRLRADLLSYLRHVQWLRRAGGSSLKTLEPELGTLQARLDRLLRRLQLLMSRLALPQPPPDPPAPPLAPPSSAWGGIRAAHAILGGLHLTLDWAVRGLLLLKTRL
# Columns and labels:
# [1] = tested on: psoriatic plaque; test: Psoriasis Severity Index (PSI) score at the lesion biopsy site during treatment (Example 3); type: in vivo, human; details: for PSI score: seen at weeks 8 and 12
# Description: Three subjects with extensive psoriasis (>10% body surface area affected) were treated with […] of rhIL-11 subcutaneously every day for 8 weeks (Trepicchio et al. (1999) J. Clin. Invest. 104:1527-1537). The dose selection of rhIL-11 was based on the outcome of a clinical trial in subjects with Crohn's disease, where biological activity was observed. […] Upon enrollment, a psoriatic plaque was chosen for weekly assessment of lesion severity. […] In addition, before initiation of treatment, a 6-mm punch biopsy was taken from uninvolved skin at a location of the patent's choosing. Biopsies were equally divided for immunohistochemical analysis and for RNA preparation. Global clinical assessment of each subject was based on the Psoriasis Area and Severity Index (PASI) score in each subject before and during therapy as described previously (Gottlieb, et al. (1992) J. Invest. Dermatol. 98:302-309). The grading system used to measure local disease activity at the lesion biopsy site was the Psoriasis Severity Index (PSI). This index grades individual psoriasis lesions for scale, erythema, and induration on a 0- to 6- point scale for each parameter (0, absent, 1, trace, 2, mild, 3, mild to moderate, 4, moderate, 5, moderate to severe, and 6, severe). The final score is the sum of the individual parameters for a range of 0-18 (Fredriksson and Pettersson (1978) Dermatologica 157: 238-244; and Coven et al. (1997) Arch. Dermatol. 133:1514-1522). Histopathological assessment was performed on one-half of the 6-mm punch biopsy. […] Sections were reacted with antibodies to CD3, CD8, K16, Ki67, ICAM-1, or HLA-FR and processed for immunohistochemistry as described previously. Computer-assisted image analysis was used to quantify epidermal thickness and the number of CD3+, CD8+, or Ki67+ cells in tissue sections as described (Gottlieb et al. (1995) Nat. Med. 1:442-447).
# [2] = tested on: marker genes in psoriatic lesional skin; test: GeneChip marker analysis of lesional skin biopsies during rhIL-11 or cyclosporin A treatment (Example 3); type: in vivo, human
# Description: Labeled RNA was prepared from clones containing a T7 RNA polymerase promoter site by incorporating labeled ribonucleotides in an in vitro transcription (IVT) reaction. Either biotin-labeled or fluorescein-labeled UTP and CTP (1:3 labeled to unlabeled) plus unlabeled ATP and GTP were used for the reaction with 2500 U of T7 RNA polymerase. Following the reaction, unincorporated nucleotide triphosphates were removed using a size-selective membrane (Mircrocon-100, Amicon, Beverly, Mass.). The total molar concentration of RNA was based on a measurement of the absorbance at 260 nm. Following quantitation of RNA amounts, RNA was fragmented randomly to an average length of approximately 50 bases by heating at 94° C. in 40 mM Tris-acetate pH 8.1, 100 mM potassium acetate, 30 mM magnesium acetate, for 30 to 40 min. Fragmentation reduces possible interference from RNA secondary structure, and minimizes the effects of multiple interactions with closely spaced probe molecules. For material made directly from cellular RNA, cytoplasmic RNA was extracted from cells by the method of Favaloro et al. ((1980) Methods Enzymol. 65: 718-749), and poly (A) RNA was isolated with an oligo dT selection step (PolyAtract, Promega, Madison, Wis.). […] The total molar concentration of labeled cRNA was determined from the absorbance at 260 nm and assuming an average RNA size of 1000 ribonucleotides. […]
# The hybridization solutions contained 0.9 M NaCl, 60 mM NaH2PO4, 6 mM EDTA, and 0.005% Triton X-100, adjusted to pH 7.6 (referred to as 6×SSPE-T). […] When biotin-labeled RNA was used, the hybridized RNA was stained with a streptavidin-phycoerythrin conjugate (Molecular Probes, Eugene, Oreg.) prior to reading. […] The arrays were read using a scanning confocal microscope made for Affy metrix by Molecular Dynamics (commercially available through Affymetrix, Santa Clara, Calif.) The scanner uses an argon ion laser as the excitation source, with the emission detected by a photomultiplier tube through either a 530 nm bandpass filter (fluorescein), or a 560 nm longpass filter (phycoerythrin). […]
# [3] = tested on: plaque psoriasis; test: Response to therapy by clinical and histopathological criteria (Example 4); type: in vivo, human; details: treated for 8 weeks
# Description: (§1) Patients with extensive plaque psoriasis (>10% body surface area affected) were considered eligible for entry into the study. […] At the start of enrollment, a psoriatic plaque was chosen for weekly assessment of lesion severity scores by the study coordinator. A 6 mm punch biopsy was taken of this lesional skin prior to rhIL-11 or cyclosporin treatment and at weeks 1, 4, 8 and 12 during IL-11 or cyclosporin treatment. In addition, prior to initiation of treatment, a 6 mm punch biopsy was taken from uninvolved skin at a location of the patient's choosing. Biopsies were equally divided for immunohistochemical analysis and for RNA preparation. Normal skin was obtained from healthy volunteers.
# Sections were reacted with antibodies to CD3, CD8, keratin 16, Ki67, ICAM-1, or HLA-DR and processed for immunohistochemistry as previously described (Trepicchio et al., supra). Computer-assisted image analysis was used to quantify epidermal thickness and the number of CD3+, CD8+, or Ki67+ cells in tissue sections as described. The grading system used to measure clinical disease activity was the PSI score, described above.
# RhIL-11 was administered to patients by a subcutaneous route at either a dose of 5 ug/kg/day or a single 1 mg or 2 mg dose administered once weekly. Cyclopsorin A was administered at a dose of 5 μg/kg/day (Gottlieb et al., supra).
# [4] = tested on: 165 genes differentially expressed between lesional and non-lesional skin; test: Gene chip / self-organizing map analysis of lesional skin over the course of drug treatment (Example 4); type: in vivo, human
# Description: as §1
# Total RNA was isolated from 6 mm full thickness skin biopsies using the RNeasy mini kit (Qiagen, Hilden, Germany). 2 μg total RNA was converted to cDNA by priming with an oligo-dT primer containing a T7 RNA polymerase promoter at the 5′ end. RNA was reverse transcribed with 200 units Superscript RT II at 50° C. for 1 hour in 1×first-strand buffer, 10 mM DTT and 0.5 mM each dNTP (Gibco BRL, Gaithersburg, Md.). […] RNA was concentrated and the amount measured using a spectrophotometer. […]
# [5] = tested on: S100A12, HBP17, K16, CCNF, SCYA2, PRKMK3, ID4, CST6 and TNXA mRNA; test: Quantitative RT-PCR of early responding genes in treated patients; type: in vivo, human; details: responding patients but not non-responding patients
# Description: Quantitative RT-PCR was performed as previously described (Trepicchio et al., supra). RNA samples from patient biopsies were treated with 10U of RQ1 DNase I (Promega) for 30 minutes at 37° C. […] Sequence-specific amplification was detected as an increased fluorescent signal of 6-FAM during the amplification cycle. Quantitation of gene-specific message levels was based on a comparison of the fluorescent intensity in the unknown mRNA sample to the fluorescent intensity from a standard curve of known mRNA levels. […] Levels of gene-specific messages were graphed as normalized message units as determined from the standard curve. […]
# Quantitative measures of gene expression changes were statistically evaluated using the JMP statistical discovery software package (SAS Institute, Inc., Cary, N.C.). […] Differences between non-lesional to lesional skin were analyzed using 2-tailed paired T-test. […]
# Changes in gene expression levels that precede clinical improvement may identify genes that play a potential causative role in disease progression or may be early markers of clinical efficacy. Quantitative RT-PCR was used to analyze gene expression changes for these early responding genes in a larger patient population. […]
# [6] = tested on: psoriasis patients; details: Trepicchio et al. (1999); cited from earlier work
# [7] = tested on: proinflammatory cytokine production; details: in part through inhibition of NF-κKB nuclear translocation; Trepicchio et al. (1997); cited from earlier work
molecule,measurement,setting,value
B1,response to the treatment as assessed by PSI scores,"[1]; Patient #202, rhIL-11",did not respond to the treatment
same,PSI scores,"[1]; Patient #202, rhIL-11 treatment, throughout the course of the study",9-11
same,PSI score,"[1]; rhIL-11, first value of 'respectively' (Patient #203)",4
same,PSI score,"[1]; rhIL-11, second value of 'respectively' (Patient #208)",5
same,expression levels of the bulk of the markers,"[2]; Patient #202, rhIL-11, throughout the study",similarly unchanged
same,expression of the preponderance of the markers,"[2]; Patients #203 and 208, rhIL-11, by week 8 compared to the beginning of the study",decrease in expression at least two-fold
same,expression of the markers,"[2]; Patients #203 and 208, rhIL-11, by week 12 compared to the beginning of the study",nearly all of the markers decreased in expression
same,patients considered to have responded to therapy,[3],8 out of 15
same,differentially regulated genes that returned to normal or uninvolved levels at time points preceding clinical improvement,"[4]; FIG. 6, Group I",36 genes
same,"levels of expression of 36 genes including HBP17, SCYA2, PRKMK3, GNA15, PHB and MTX","[4]; responding patients at week 1 of therapy, not in non-responding patients",change significantly
same,earliest time at which changes in gene expression were observed,[5],1 week
same,activity in psoriasis patients,[6],improve clinical and histopathological scores
same,proinflammatory cytokine production,[7],reduce proinflammatory cytokine production
